# Data as given in patent publication US10677782B2, “Methods of determining interferon having direct inhibitory effects on tumors and uses thereof” (SUPERLAB FAR EAST LIMITED, priority 2013, dated 2020).
# Key:
# [1] = Tolerability and body weight of tumor-bearing mice, Example 3; type: in vivo; conditions: 0.05-0.15 mg/mouse i.t. every other day, 28 days
# Experimental: (§1) Animals were assigned to treatment groups randomly. Initially, all animals were placed in one large animal cage. For assignment to the study, they were later separately housed, with 6 animals per cage per treatment group. Groups 1 and 2 are Control groups in which the animals were each administered the vehicle every other day after the first treatment. […] The animals in Groups 4, 5 and 6 were each given rSIFN-co every other day after the first treatment at 0.15 mg/mouse (Group 4) or 0.10 mg/mouse (Group 5) or 0.05 mg/mouse (Group 6), respectively. Tumor growth was monitored by measuring the length and width of each tumor twice a week during the course of the study. Each animal was also weighed twice a week during the course of the study.
# This study was conducted as in Example 1, except as specifically indicated otherwise. Human colon cancer xenografts were first established and prepared in a similar manner as in Example 1, by inoculating 5×10^6 HT-29 cells subcutaneously into nude mice and passaging the well-grown xenografts twice in nude mice. Then, 1.5 mm^3 fragments were prepared for s.c. implantation into the test animals. The body weight of the animals averaged 20±2 g at dose initiation In contrast to Example 1, the animals used in this study were all female. […]
# [2] = Tolerability and body weight of tumor-bearing mice, Example 4; type: in vivo, BALB/cA nu/nu mice; conditions: 0.05 mg/mouse i.t. every other day; day 17; reasons unknown
# Experimental: as §1
# The study was conducted as in Example 3, except as specifically indicated otherwise. Human xenografts for injection into the test animals were first established and prepared in a similar manner as in Example 1, but by inoculating 2.5×10^6 SPC-A4 cells subcutaneously (s.c.) in nude mice and passaging the well-grown tumors twice in nude mice. The 1.5 mm^3 fragments were then used for s.c. implantation into the test animals. The body weight of the animals averaged 22±2 g at dose initiation. In contrast to Example 3, the animals used in this study were all male and the study was conducted over a 21 day treatment period.
# [3] = tested on: Human Cervical Cancer Hela Xenografts; experiment: Human cervical cancer Hela xenografts in nude mice (Example 2); type: in vivo; conditions: for TV (mm^3, mean ± SD) (D0): day 0, start of treatment; for TV (mm^3, mean ± SD) (D28): day 28
# Experimental: (§2) Before commencement of this study, the xenografts were passaged twice in nude mice. Under sterile conditions, well-grown tumors were cut into 1.5 mm^3 fragments and one such fragment was injected by trocar needle into the right flank of each study animal. […] Individual tumor size (length and width) was measured twice per week with microcalipers. Tumor volume (V) was calculated using the formula: V=(length×width^2)/2. Individual relative tumor volume (RTV) was calculated using the formula: RTV=Vt/V0, where Vt is the tumor volume on the day of measurement and V0 is the tumor volume on the day of first treatment. Therapeutic effect of the test article or control article was expressed in terms of TIC (%), using the formula: TIC (%) (mean RTV of the treated group/mean RTV of the control group)×100%; and in terms of % Inhibition, using the formula: % Inhibition=100%−T/C %.
# Then 1.5 mm^3 fragments were prepared for s.c. implantation into the animals.
# human hepatoma SMMC-7721 = experiment: Human hepatoma SMMC-7721 xenografts in nude mice (Example 1); type: in vivo; conditions: for TV (mm^3, mean ± SD) (D0): day 0, start of treatment
# Experimental: The test article was used without dilution. It was stored at 4° C. until thawed for injection.
# The animals used were 4-6 weeks old male BALB/cA nu/nu mice, weighing about 23±2 g, obtained from the Shanghai Institute of Materia Medica (Shanghai, P.R. China). The study protocol was reviewed by the Committee on the Use and Care of Animals of Shanghai Institute of Materia Medica for compliance with regulations, and Committee approval was obtained prior to study initiation. Wherever possible, procedures used in this study were designed to avoid or minimize discomfort, distress, and pain to the animals. Animals that experience severe or chronic pain or distress that could not be relieved were painlessly euthanized, in accordance to regulations. Animals were housed 6 to a cage. They were ear-marked with ear hole punch identification. The room temperature was maintained at 25° C.±1° C. Lighting was set at 12 hr on and 12 hr off. Food was provided ad libitum. City tap water, filtered with a 5 micrometer (μm) filter, was provided to the animals ad libitum via water bottles. Neither the Study Director nor Huiyang Life Science and Technology Corp. was aware of any contaminant in the food or water that would interfere with or influence the intent and purpose of this study.
# The test article (rSIFN-co) and the vehicle control were each administered intratumorally (i.t.). The test article was administered in a volume of 0.05 ml-0.15 ml per mouse per treatment, depending on the group to which the animal was assigned. […] Normal saline was injected in a volume of 0.15 ml per mouse, which was used as vehicle control.
# as §1, §2
# [4] = tested on: human lung cancer SPC-A4 xenografts; experiment: Human lung cancer SPC-A4 xenografts in nude mice (Example 4); type: in vivo; conditions: for TV (mm^3, mean ± SD) (D0): day 0, start of treatment; for TV (mm^3, mean ± SD) (D21): day 21
# Experimental: as §2
# The 1.5 mm^3 fragments were then used for s.c. implantation into the test animals.
# [5] = 0.05 mg/mouse i.t. every other day
# [6] = 0.10 mg/mouse i.t. every other day
# [7] = 0.15 mg/mouse i.t. every other day
# [8] = 0.05 mg/mouse i.t. every other day, day 21
molecule,measurement,setting,value
"rSIFN-co: Recombinant super-compound interferon; amino acid sequence SEQ ID NO: 1 (same as interferon alfacon-1), encoded by SEQ ID NO: 2, novel tertiary structure (protein, Amino acid sequence of recombinant interferon) MCDLPQTHSLGNRRALILLAQMRRISPFSCLKDRHDFGFPQEEFDGNQFQKAQAISVLHEMIQQTFNLFSTKDSSAAWDESLLEKFYTELYQQLNDLEACVIQEVGVEETPLMNVDSILAVKKYFQRITLYLTEKKYSPCAWEVVRAEIMRSFSLSTNLQERLRRKE",tolerability: signs of drug toxicity and changes in weight,[1],no signs of drug toxicity and minimal changes in weight
same,deaths,[2],one mouse
same,"TV (mm^3, mean ± SD) (D0)",[3]; [5],135 ± 26 mm^3
same,"TV (mm^3, mean ± SD) (D28)",[3]; [5],886 ± 232 mm^3
same,"TV (mm^3, mean ± SD) (D0)",[3]; [6],135 ± 28 mm^3
same,"TV (mm^3, mean ± SD) (D28)",[3]; [6],865 ± 186 mm^3
same,"TV (mm^3, mean ± SD) (D0)",[3]; [7],136 ± 25 mm^3
same,"TV (mm^3, mean ± SD) (D28)",[3]; [7],1025 ± 400 mm^3
same,"TV (mm^3, mean ± SD) (D0)",human hepatoma SMMC-7721; [5],124 ± 26 mm^3
same,% Inhibition,human hepatoma SMMC-7721; [8],48.10%
same,"TV (mm^3, mean ± SD) (D21)",human hepatoma SMMC-7721; [8],592 ± 139 mm^3
same,"TV (mm^3, mean ± SD) (D0)",human hepatoma SMMC-7721; [6],124 ± 15 mm^3
same,"TV (mm^3, mean ± SD) (D21)","human hepatoma SMMC-7721; 0.10 mg/mouse i.t. every other day, day 21",573 ± 287 mm^3
same,"TV (mm^3, mean ± SD) (D0)",human hepatoma SMMC-7721; [7],123 ± 20 mm^3
same,"TV (mm^3, mean ± SD) (D21)","human hepatoma SMMC-7721; 0.15 mg/mouse i.t. every other day, day 21",505 ± 226 mm^3
same,"TV (mm^3, mean ± SD) (D0)",[4]; [5],170 ± 41 mm^3
same,"TV (mm^3, mean ± SD) (D21)",[4]; [5],2244 ± 1043 mm^3
same,"TV (mm^3, mean ± SD) (D0)",[4]; [6],168 ± 49 mm^3
same,"TV (mm^3, mean ± SD) (D21)",[4]; [6],2388 ± 1544 mm^3
same,"TV (mm^3, mean ± SD) (D0)",[4]; [7],169 ± 40 mm^3
same,"TV (mm^3, mean ± SD) (D21)",[4]; [7],2284 ± 653 mm^3
